Assay: yeast display, Sf9 membrane polyspecificity reagent, FACS + sequencing; frameworks hold sequencing errors
How it was run: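 Galactose induction of a Saccharomyces cerevisiae BJ5465 synthetic nanobody display library ran 36–48 hours. The cells were then stained for 1 hour at 4 °C with 10% biotinylated, detergent-solubilized Sf9 membrane reagent, pulled down on streptavidin microbeads and FACS-sorted into low and high (top ~1%) gates on expression and reagent-binding fluorescence. Labels for polyreactivity follow the gate of origin.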

Row | Sequence | polyreactivity (PSR sort gate)
1 | QVQLVESGGGLVQAGGSLRLSCAASGFISARYAMGWYRQAPGKERELVAGISGGGGRTYYADSVKGRFTISRDNAKNTVYLQMNSLKPEDTAVFYCAATLQSRDRRFNYWGQGTQVTVSS | high polyreactivity
2 | QVQLVESGGGLVQAGGSLRLSCAASGFISFPYAMGWYRQAPGKERELDASITRSGGNTYYADSVKGRFTISRDNAKNTVYLQMNRLKPEDTAVYYCNAQIYTYRTGRGYSRLDYWGQGTQVTVSS | high polyreactivity
3 | QVQLVESGGGLVQAGGSLRLSCAASGFISRYYYMGWYRQAPGKERELVAAIRWSGDRTYYADSVKGRFTISRDNAKNTVYLLMNSLKPEDTAVYYCNADVVLGRSWRGYWGQGTQVTVSS | high polyreactivity
4 | QVQLVESGGGLVQAGGSLRLSCAASGFISSDYAMGWYRQAPGKEREFVAGISRGGGSTYYADSVKGRFTISRDHAKNTVYLQMISLKPEDTAVYYCNARTSLRKYQYYYWGQGTQVTVSS | high polyreactivity
5 | QVQLVESGGGLVQAGGSLRLSCAASGFISSHYAMGWYRQAPGKERELVAAISTNGGSTYYADSVKGRFTISRDNAKNTVYLQMNSLKPEDTAVYYCAAEFAVSFYWSWLGQDYNYWGQGTQVTVSS | high polyreactivity
6 | QVQLVESGGGLVQAGGSLRLSCAASGFISTINVMGWYRQAPGKEREMVAAMTYIDGSTFYADSVKGRFTISRDNAKNTVYLQMNSLKPEDTAVYYCAADLYQWGAVFLYVRSTGLDYWGQGTQVTVSS | low polyreactivity
7 | QVQLVESGGGLVQAGGSLRLSCAASGFISYFYAMGWYRQAPGKERELVAAISWNGARTYYADSVKGRFTISRDNAKNTVYLQMNSLKPEDTAVYYCNAGTFTRRRGLDYWGQGTQVTVSS | low polyreactivity
8 | QVQLVESGGGLVQAGGSLRLSCAASGFIVRRYAMGWYRQAPGKERELVAAITSSGTSTYYADSVKGRFTISRDTAKYTVYLQMNSLKPEDTAVYYCAAVYQYTHYYSNYRYWGQGTQVTVSS | high polyreactivity
9 | QVQLVESGGGLVQAGGSLRLSCAASGFIYARYAMGSYRQAPGKERELLAAISWSGARTYYADSVKGRFTISRDNAKNTVYLQMNSLKAEDTAVYYCAARRLSYSYDYWGQGTQVSVSS | high polyreactivity
10 | QVQLVESGGGLVQAGGSLRLSCAASGFIYGKNAMGWYRQAPGKERELVAAISQRGGSTYYADSVKGRFTISRDTAKNTVYLQMNSLKPEDTAVYYCAADGRRVVARYDYWGQVTQVTVSS | high polyreactivity
11 | QVQLVESGGGLVQAGGSLRLSCAASGFIYGYYAKGWYRQAPGKARELVAAISYSGGSTYYADSVKGRFTISRDNAKNTVYLQKNSLKPEDSAVYYCAAVYLGYIYSRYDYWGQGTQVTVSS | low polyreactivity
12 | QVQLVESGGGLVQAGGSLRLSCAASGFIYHTNAMGWYRPAPGKERELVAAISDSADITHYADSVKGRFTISRDYAKNTVYLQMNSLKPEDTAVYYCNTTGDPPAYDFAFEDWGQGTQVTVSS | low polyreactivity
13 | QVQLVESGGGLVQAGGSLRLSCAASGFIYSAYAMGWYRQAPGKERELVAAISYSGGTTYYADSVKGRFTISRDNAKNTVYLQMNSLKPEDTAVYYCAAGVGYWGQGTQVTVSS | high polyreactivity
14 | QVQLVESGGGLVQAGGSLRLSCAASGFIYTRNAMGWDRQAPGQERELVAAITSSGGSTYYADTVKGRFTISRDNAKNTVYLQMNSLKREDTAVYYCARGKSVGFNYWGQGTQVTVSS | high polyreactivity
15 | QVQLVESGGGLVQAGGSLRLSCAASGFNFARNTMGWYRQAPGKERELVAAISSSGGSTYYADSVKGRFTISRDNAKNTVYLQMNSLKPEDTAVYYCNKGYTGLYGYDYWGQGTQVTVSS | high polyreactivity
16 | QVQLVESGGGLVQAGGSLRLSCAASGFNFGTYAMGWYRQAPGKERELVAAISSGGSTYYADSVKGRFTISRDNAKNTVYLQMNSLKPEDTAVYYCAKEGGTYRIFNYWGQGTQVTVSS | low polyreactivity
17 | QVQLVESGGGLVQAGGSLRLSCAASGFNFQGNAMGWYIQAPGNERELVAAISSDGSTYYADSVKGRFTISRDNAKNTVELQMYSLKPEDTAVYYCAAEWWYYYPGYIITSYDYWGQGTQVTVSS | low polyreactivity
18 | QVQLVESGGGLVQAGGSLRLSCAASGFNFQRYAMGWYRQAPGKERELVAAISVRGTRTYYADSVKGRFTISRDKAKNTVYFQMYSLKPVDTAVYYCNADWERDVQDEYWGQGTHVTVSS | high polyreactivity
19 | QVQLVESGGGLVQAGGSLRLSCAASGFNFTGYTMGWYRQAPGTERELVAAISSSGGSTYYADSVKGRFTISRDNAKNTVYLQMNSLKPEDTAVDYCNAPRYRPGYWYDYWGQGTQVNVSS | high polyreactivity
20 | QVQLVESGGGLVQAGGSLRLSCAASGFNFTHYAMGWYRQAPGKERELVAAISRNGGSTYYADSVKGRFTISRDNAKNTVYLQMNSLKPEDTAVYYCAAVRHGVSLAGYYWGQGTQVTVSS | high polyreactivity
21 | QVQLVESGGGLVQAGGSLRLSCAASGFNFTTYAMGSYRHAPGKERELVAAISGRGGTTDYADSVKGRFTISRDNAKNTVYLHMNSLKPEATAVYYCAADGYPGDDYWGQGTQVTVST | high polyreactivity
22 | QVQLVESGGGLVQAGGSLRLSCAASGFNFYCNAMGWYRQAPGKERELVATIRYRGGRTYYADSVKGRFTISRDNEKNTVYLQMNSLKPEDTAVYYCNTRSVYHRYDYDYWGQGTQVTVSS | high polyreactivity

Row | Sequence | polyreactivity (PSR sort gate)
23 | QVQLVESGGGLVQAGGSLRLSCAASGFNFYSNAMGWYRQEPGKERELVADINRGGTSTYYADSVKGRFTISRDNAKNTVYLQMNSLKPEDTAVYYCNAGLRYRSRLWNIYWYDYWGQGTQVTVSS | high polyreactivity
24 | QVQLVESGGGLVQAGGSLRLSCAASGFNLKWYAMGWYRQAPGKERELVAAINDRGGNTYYADSVKGRFTISRDNAKNTVYLQMNSLKPEDTAVYYCAVRGKTYRPYYYWGQGTQVTVSS | high polyreactivity
25 | QVQLVESGGGLVQAGGSLRLSCAASGFNTRLYAMGWYRQAPGKEREFVAAISWDGTRTYYADSVKGRFTISRDTANKTFYLQMNSLKPEDTAVSYCNARRRQWQARYDYWGQGTQITVSS | high polyreactivity
26 | QVQLVESGGGLVQAGGSLRLSCAASGFNVRYYAMGWYRQAPGKERELVAAISSGGNTRYADSVKGRFTISRDNAKNTVYLQMNSLKPEDTAVYYCARRPGAWKYVYTGDYWGQGTQVTVSS | high polyreactivity
27 | QVQLVESGGGLVQAGGSLRLSCAASGFNYRYYAMGWYRQAPGKERELVAAIDYSGGSTNYADSVKGRFTISRDNAKNTVYLQMNSLNPEDTAVYYCNAEYTWHRGYDYWGQGTQVTVSS | low polyreactivity
28 | QVQLVESGGGLVQAGGSLRLSCAASGFNYSNAMGWYRQAPGKERELVAAITSRGGSTYYADSVKGRFTISRDNAKNTVYLQMNSLKPEDTAVYYCATKVWTRFIYYYWGQGTQVTVSS | high polyreactivity
29 | QVQLVESGGGLVQAGGSLRLSCAASGFSFEGYAMGWYRQAPGKERELVAAISSNGGRTYYADSVKGRFTISRDNAKNTVYVLMNSLKPEDTAVYYCNARRAYSGPDYDYYHGRRYDYWGQGTQVSVSS | low polyreactivity
30 | QVQLVESGGGLVQAGGSLRLSCAASGFSFTNYAMGWYRQAPGKERELVAAINRSGGRTYYADSVKGRFTISRDNAKNTVYLQMNSLKPEDTAVYYCAAYGRYYYIYDYWGQGTQVTVSS | high polyreactivity
31 | QVQLVESGGGLVQAGGSLRLSCAASGFTCTSNAMGWYRQAPGKERELVAAITFTGGRTYYADSVKGRFTISRDNAKNTVYLQMNSLKPEDTAVYYCNRVTAYYPTKFDYWGQGTQVTVSS | high polyreactivity
32 | QVQLVESGGGLVQAGGSLRLSCAASGFTFAFYTMGWYRQAPGKERELVAGITRSGTNTYYADSVKGRFTISRDNSKNTVYLQMNSLKPEDTSVYYCNADPRTGWYKYDYWGQGTQVTVSS | high polyreactivity
33 | QVQLVESGGGLVQAGGSLRLSCAASGFTFAGNAMGWDRPAPGKERELVAGISRRGGNTYYADSVKGRFTISRDTAKNTVYLQMNRLKPEDTAVYYCARYSSSYWGQGTQVTVSS | high polyreactivity
34 | QVQLVESGGGLVQAGGSLRLSCAASGFTFAGNTMGWYRQAPGKERELVAAINSGGSTHYADSVKGRFTISRDNAKNTVYLQMNSLKPEDTAVYYCADYLTRYGAYYWGQGTQVTVSS | high polyreactivity
35 | QVQLVESGGGLVQAGGSLRLSCAASGFTFAHNAMGWYRQATGKERELVAVISWSGGRTYYADSVKGRFTISRDNAMNTVYLQMNSLKPEDTAVYYCATRHSKFSYGYWGQGTQVTVSS | high polyreactivity
36 | QVQLVESGGGLVQAGGSLRLSCAASGFTFAPNAMGWYRQAHGKERELVAAISSASSTYYADSVKGRFTISRDNAKNTVYLQMNSLKPEDTAVYYCAAREGWGFYYWGQGTQGTVSS | high polyreactivity
37 | QVQLVESGGGLVQAGGSLRLSCAASGFTFAPYAMGWYRQAPGKERELVAAISSNGGSTYYADSVKGRFTISRDNAKNTVYLQMNSLKPGDTAVYYCAAPVRQSSYNRYDSWGQGTQVTVSS | high polyreactivity
38 | QVQLVESGGGLVQAGGSLRLSCAASGFTFAQYTMGWYRPAPGKERELVAAIRVGGGSTYYADSVKGRFTISRDNAKNTVYLQMNSLKPEDTAVYYCAKRTYSRKFRGAYNYWGQGTQVTVSS | high polyreactivity
39 | QVQLVESGGGLVQAGGSLRLSCAASGFTFARYAMGWYRQAPGKERELVAAISWSGARTYYADSVKGRFTISRDNAKNTVYLQMNSLKPEDTAVYYCNAVSGSSNFDYWGQGTQVTVSS | high polyreactivity
40 | QVQLVESGGGLVQAGGSLRLSCAASGFTFASNAMGWYRQAPGKERELVAAITWGTGTTSYADSVKGRFTISRDYAKNTVYLQMNSLKPEDTAVYYCNARVGPELHDYWGQGTQVTVSS | low polyreactivity
41 | QVQLVESGGGLVQAGGSLRLSCAASGFTFASNAMGWYRQAPGKERELVADITNTGSTYYADSVKGRFTISRDNAKNTVYLQMNSLKPEDTAVYYCAARSRDVTDGQRISAPHGYWGQGTQVTVSS | low polyreactivity
42 | QVQLVESGGGLVQAGGSLRLSCAASGFTFASYAMGWYRQAPGKERELVAAITRRGGSTNYADSVKGRFTISRDNAKNTVFLQMISLKPEDTAVYYCNDLHGVWDPAYDYWGQGTQVTVSS | low polyreactivity
43 | QVQLVESGGGLVQAGGSLRLSCAASGFTFASYVMGWYRQAPGKERELVASISWSGGRTYYADSVKGRFTISRDNAKNTVYLQMNSLKPEDTAVYYCNVLVTRYSPWFLYNYWGLGTQVTVSS | high polyreactivity

— the nanobody polyreactivity screen of Harvey et al. (2022)
